# From patent publication US20230002757A1
# Target: KLH (Keyhole Limpet Hemocyanin) (keyhole limpet)
# Assay: ELISA on KLH
row,EC50,Binder
1,0.072 nM,NGS602-OLIGO_72 (VHH) VHH: QVELVESGGALVQAGGSLKLSCVDSGRSFSSYVVAWFRQAPGKEREFVARVSASGAIRTYADSVRGRFTISRDNTKATVYLQMNSLKSEDTAVFFCAAGGVSTAVHPFKPTSYDFWGQGTQVTVSV
2,0.28 nM,NGS602-OLIGO_186 (VHH) VHH: QVQLAESGGGLVQAGDSLRLSCAASGRSVSSYAMGWFRQAPGKEREFVAAISWSGESTHYADSVKGRFTISRDNAENTVYLQMNSLKPEDTAVYYCASYLSGHYYFGIGRDPPFGSWGQGTQVTVSS
3,220 nM,NGS602-OLIGO_221 (VHH) VHH: QVQLVESGGGLVQAGESLRLSCVASGRTFSSYAMGWFRQAPGQEREFVARISRRGTNTYYADSVRGRFTISRDNAKNTVYLQMNSLKPEDTAVYYCAADRSDVFEKDPGYYDYWGQGAQVTVSS
4,0.067 nM,NGS602-OLIGO_30 (VHH) VHH: QVQLVESGGGTVQAGGSLRLSCAASGLTFGSYAMEWYRQAPGKERELVATISSGGNTHYLASVKGRFTISRDNDKNTLYLQMNSLKPEDTAVYYCAAKYGWTGIWYAPSDYVHLGPGTQVTVSS
5,0.409 nM,NGS602-OLIGO_151 (VHH) VHH: EVQLVESGGGLVQPGGSLRLSCTASGFTLSTSPVSWARQAPGKGPEWLAGIYSDGRTSNLVSLRGRFTISRDNAKNTVYLQMNSLLPEDTALYYCAIGAAAVGGLRGQGTQVTVSS
6,0.195 nM,NGS602-OLIGO_266 (VHH) VHH: QVQLVESGGGLVQAGGSLRLSCAASGRTFFTYPMGWFRQAPGKERQFVAAISGNGDSIDYADSVKGRFTISRDNAKNTLYLQMNSLKPEDAALYYCNAVITHDYTRPLFASWGQGTQVTVSS
7,1.01 nM,NGS602-OLIGO_31 (VHH) VHH: QVQLVESGGGLVQAGDSLRLSCTASGTTFDRYHMGWFRQAPGMERHVVAHISWSGANTYVADSMKGRFTISRDNAKNTAYLQINNLKFEDTALYYCAAGSYLAVPGSRWDYWGQGTQVTVSS
8,0.181 nM,NGS602-OLIGO_12 (VHH) VHH: QVQLVESGGGSVQAGGSLRLSCAASGRTFGRHVMAWFRQAPGREREFVAAISGNGRVTNYALSMKGRFTISRDNANDMVYLQMDGLKPEDTAVYSCATRMAFDSDSNFPATYDVWGQGTQVTVSS
9,0.291 nM,NGS602-OLIGO_35 (VHH) VHH: QVSLVESGGGLVQAGGSLRLSCAASGRTFRRSAMGWFRRPPGKEREFVAAITSSGGSIYDPDIAKDRFTISRDNSKTSVYLQMNNLKPEDTAVYYCSLKTTYSGGPYDYTKGPEYDYWGQGTQVTVSS
10,0.077 nM,NGS602-OLIGO_185 (VHH) VHH: QVQLVESGGGLVQAGGSLRLSCAASGRTSSRYVMGWFRQSPGKEREFVAAISANGRSTNYAGSVNGRFKISRDGAKDKVDLQMNSLKPEDTAVYFCATNMAFSSSSNFPANYDVWGQGTQVTVSS
11,0.638 nM,NGS602-OLIGO_152 (VHH) VHH: QVQLVESGGGLVQAGDSLRLSCAASGDNFSRYTFGWFRQAPGKEREFVAVINWSGSYTYVADSVAGRFTMSRDNAKHLVYLQMDSLNTGDTAVYYCAAHWDYGSSSRRQREYDYWGQGTQVIVSS
12,0.61 nM,NGS602-OLIGO_359 (VHH) VHH: QVQLVESGGGLVQPGGSLRLSCAASGYSLSFYAMGWYRQSPGKQREVVARIAGPGVTNYADSVMGRFTISRDNAKNMVYLQMNSLEPEDTAVYYCNAGGTRWSVGDYWGKGTLVTVSS
13,0.707 nM,NGS602-OLIGO_28 (VHH) VHH: QVQLVESGGGLVRAGGSLRLSCAASGRAFSSYPMGWFRRAPGKEREFVAAISLSGSKQYYVDSVKGRFTISRDNAKNTVSLQMNSLKPEDTAVYYCAALKDGEPPAVDYWGQGTQVTVSS
14,1.16 nM,NGS602-OLIGO_205 (VHH) VHH: RVQLVESGGGLVQPGGSLRLSCTASGLPLNTAAMSWYRQTPGKERELVASISITGDSTTYADSVKGRFTISRDNVKNIVYLQMDILKPEDTAVYYCTRAPWDYKYWGQGTQVTVSS
15,0.213 nM,NGS602-OLIGO_169 (VHH) VHH: RVQLVESGGGLVQAGGALRLSCVGSGFTFRDTAMAWFRQSPGKEREFVAGFSILSRYADSVKGRFTISRDNDKNTVYLQMNSLKPEDTAVYYCAAGDGTIASVLTTSGVNFWGQGTQVTVSS
16,0.342 nM,NGS602-OLIGO_42 (VHH) VHH: QVQLVESGGGLVQAGGSLRLSCLFSGTFGIYGMGWFRQAPGKAREFVAGVSRHGLTTQYADSVKGRFTISRDNAKNTMYLQMNSLKPEDTADYYCARSRLSASLLVTASDYDYWGQGTQVTVSS
17,0.241 nM,NGS602-OLIGO_55 (VHH) VHH: QVQLTESGGGLVQAGASLRLSCVASPDTPSTYTIAWFRRAPGKERDFVANIARAGTTITYADSVKGRFTISKDNARNTVYLQMNNLTPADTAIYYCAAYSPGSIIARDSTQYRYWGQGTRVTVSE
18,1.74 nM,NGS602-OLIGO_2 (VHH) VHH: QVQLVESGGGLVQPGGSLRLSCAASESIRSIYAMGWYRQAPGKQRELVALVTDDGSTDYVDSVKGRFTVSRDSAKNTVYLQMNSLKPEDTAVYHCYVEGSTHYDPVREYWGKGTLVTVSS
19,0.147 nM,NGS602-OLIGO_149 (VHH) VHH: QVQLVESGGGLVQAGDSLRLSCAASGRTFSSYAMAWFRRPPGKAREFVALIRWSNGRTAVVDSVKGRFTASRDNAKNTGYLQMDSLKSEDTAVYYCAACDQALDPPRCNDWGQGTQVTVSS
